According to article PMC3958255 (Sensors (Basel, Switzerland), 2014):

Tests used:
[1] = molecular target: T1, Lc-Jun (bJun fused downstream of mLumin (151-233)) (UniProt P05412 257-318); assay: split reporter (BiFC, NanoBiT); mLumin-based BiFC from the bicistronic vector pBudCE4.1 (BEVL-BiFC) in living COS-7 cells; 100 ng vector (also 300 ng) with 30 ng pmCerulean-C1 as internal control; imaged 16 h after cotransfection; BiFC efficiency = fluorescence intensity ratio of mLumin to mCerulean; conditions: partners not purified
T1 construct: primers are in the Supporting Information; also called Lc-bJun; source: COS-7, transfected (pBudCE4.1 bicistronic vector), in living cells; not shown: mLumin (151-233) (Lc), N-terminal, kept

[2] = molecular target: T2, Jun-Lc (bJun fused upstream of mLumin (151-233)) (UniProt P05412 257-318); assay: as above; conditions: partners not purified
T2 construct: primers are in the Supporting Information; also called bJun-Lc; source: COS-7, transfected (pBudCE4.1 bicistronic vector), in living cells; not shown: mLumin (151-233) (Lc), C-terminal, kept
T2 sequence (P05412 257-318): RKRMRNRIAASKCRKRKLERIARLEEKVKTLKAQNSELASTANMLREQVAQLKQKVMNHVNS

T1 sequence (P05412 257-318): as above

B1: Ln-Fos (bFos fused downstream of mLumin (1-151)) (domain or fragment, UniProt P01100 118-210, looked up)
chain: GRAQSIGRRGKVEQLSPEEEEKRRIRRERNKMAAAKCRNRRRELTDTLQAETDQLEDEKSALQTEIANLLKEKEKLEFILAAHRPACKIPDDL
notes: primers are in the Supporting Information; also called Ln-bFos; source: COS-7, transfected (pBudCE4.1 bicistronic vector), in living cells; not shown: mLumin (1-151) (Ln), N-terminal, kept
[1]
  fold contrast in BiFC efficiency over ΔFos/Jun: ~25 fold
[2]
  fold contrast in BiFC efficiency over ΔFos/Jun: ~25 fold
